# Laboratory results: the supplement of paper PMC9170038
# Tested on: MS2 coat protein
# Assay: apparent KD of MS2 coat protein; higher = weaker reporter binding
# Conditions: Eterna round: R107
# Method in brief: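 Apparent KD is reported per design as the median of normalised binding-curve fits across its clusters. The RNA switches were made by on-chip transcription from Illumina sequencing clusters. SNAP-549-labelled MS2 coat protein was then added in twofold steps (0.7 or 1.5 nM to 3 µM; 0.8–1.5 h to 10–20 min per step) in 100 mM Tris-HCl pH 7.5, 80 mM KCl, 4 mM MgCl2, without or with constant ligand.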
# [1] = input ligand: theophylline 20 uM
# [2] = input ligand: tryptophan 2.4 mM
# [3] = input ligand: theophylline 2 mM
Sequence,apparent KD of MS2 coat protein (input ligand: arginine 13.2 mM),apparent KD of MS2 coat protein [1],apparent KD of MS2 coat protein [2],apparent KD of MS2 coat protein (input ligand: none),apparent KD of MS2 coat protein [3]
ACAUGAAGAACAGCGGUGGGCGCGCUCGAUACCAGUACUUUGAUAUACCCUUGGCAGCGACAUGAGGAUCACCCAUGUGAGAUGA [XTheo A #2],16 nM,23.9 nM,18.1 nM,–,–
UUCAGCUAGUCGGCCGCCACUACAUGAGGAUCACCCAUGUUCCUAAAACACUGCUUCGGCAGUGGUAGGACCGGGACUAGCUGAG,41.1 nM,48.5 nM,256 nM,31.7 nM,42 nM
ACACACAUGAGGAUCACCCAUGUCUAUAUACGAGGACCGGUACGGCCGCCACUCGUGAGAUCGCGAGAGACAGCUUUGGGCUAGU [theeternabot_sameState_MS2_Trp_A_37],17 nM,23.9 nM,–,–,19 nM
GGGCAAGAGGGAAGGAGCGUCGGCUGAGUAACAUGAGGAUCACCCAUGUAGCACAUGGUGUGGCAGGUAGGUCGCCCUCUGCCCU [SS-ArgB8],56.1 nM,201 nM,118 nM,103 nM,178 nM
UGAUCCUACAGAGAUACCAGUGCCGCUAGAUAACUAUGCACAUGAGGAUCACCCAUGUAACACCCUUGGCAGCUCAACUAAAGGG [Same State Theophylline B GF20],42.5 nM,127 nM,79.7 nM,–,–
AGGACUUGCGUUCAAAAUCCCAUGUUGGAAGGAGCGCAUAUAGUUGCAGGUAGGUCGCCGACAUGAGGAUCACCCAUGUCUUUUC [Zasorequer],36 nM,43.8 nM,35.2 nM,40.3 nM,40.5 nM
GGACUAACCAGAAGGAGCGGCGCGCAGAAACUGCAAAUUCCUCCGCACGAGGAUCACCCGUGUCAGGUAGGUCGCUGGUUAGUCG [ArgBX 28],14.2 nM,17.9 nM,17.5 nM,14.2 nM,16.6 nM
AUAACGAGUGGUGGAAUACAUGGGUGAUAACGAGGACCGGUACGGCCGCCACUCGAUAACAUGAGGAUCACCCAUGUAAUAAUAA [|T'-M'-Trp-Ms2|_Design18],57.3 nM,160 nM,–,–,139 nM
AAAGGAAGGUAAAAUAAAACUACAUGUGAAGGAGCGCGCGAAAGCGCAGGUAGGUCGCACAUGAGGAUCACCCAUGUCCUUCCAA [MAT - Exclusion Arginine A - Mod of Eli - D4],112 nM,181 nM,96.8 nM,104 nM,129 nM
UAAAUAAUCUGGGUGUAGGUAAUAACAGAUACCAGCCAGAUAACUGGCCCUUGGCAGCUGAUAACAUGAGGAUCACCCAUGUAAA [Mat - Same State Theophlline A - Mod of Eli - D20],47 nM,114 nM,55.6 nM,–,–
CUACAUUUGUAGAAACCGGUCAACAAUAAUCGAGGACCGGUACGGCCGCCACUCGAUGUGAAAUCACAUGAGGAUCACCCAUGUA [Tryptophan A 18],18.9 nM,23.8 nM,–,–,19.8 nM
AGUCUUGAACGAAGGAGCGACGUACAUGAGGAUCACCCAUGUGUAGGAGCGAAAGCUCCACGUCAGGUAGGUCGCGUUCGAGACA [Omei Arginine B SS A v4],12.1 nM,14.4 nM,13.9 nM,11.7 nM,12.5 nM
CCACAUGAGGAUCACCCAUGUAUAGUUGAAGGAGCGAUCAUUAGGUCAGGUAGGUCGCAGCACAUGAGGAUCACCCAUGUCGAAA [DOUBLE!!! :-D #3],41.2 nM,60.9 nM,58.4 nM,64.8 nM,72.8 nM
GGCUGUUGCUCUUUGAAGCGGCAGCGUGAUACCAGAUGUAAGAGCGUCCCUUGGCAGCACGUUUACAUGAGGAUCACCCAUGUCA [Raisquin],70.6 nM,163 nM,151 nM,–,–
UUAAUCAUAUAAGAAAACUUAUAUGCAGAAGGAGCGUGAUAAAACACAGGUAGGUCGCUGAAGGGAACAUGAGGAUCACCCAUGU [AstrosSSArgA#7],28 nM,36.2 nM,28.8 nM,23.4 nM,32.4 nM
GGCACAUAGUCGGCCGCCACUAGGCUGUAGUGGGAGGACAUGAGGAUCACCCAUGUAUUUGGUACUAGGACCGGGACUAUGUGCC [Lion],62.3 nM,259 nM,258 nM,191 nM,274 nM
GAACAUGAGGAUCACCCAUGUUAAACAGAUACCAGUGAUAUAAUACACCCUUGGCAGCUGAAGCUGAAUAAUAAUUCCCUCAAGC [#21 SameState-TheophyllineA],13.4 nM,17 nM,10.5 nM,–,–
UUUUUUAUUAUGGCGUAUCGGAAAACCGAUACCAGUACAGAAAUGUACCCUUGGCAGCGGCGUUUUACAUGAGGAUCACCCAUGU [Ex Theophylline A 5],12.4 nM,18.9 nM,15.4 nM,–,–
AAUGUAUGGCACAUGAGGAUCACCCAUGUGCGAGGACCGGUACGGCCGCCACUCGGUCCUGGGAUCUUACCACUAUACAUUAAUG [XTryp A #21],10.2 nM,14.8 nM,–,–,11.3 nM
UGACAUUGCUCAGAUACCAGACAUGAGCAUCAGCCAUGUGCCAACAAGUACAUAAUAAAAGUCCCUUGGCAGCUGAGCAAUGUCU [TheoBX 20 #MS2Left #AlternativeMS2 #Theo2],13.2 nM,16.2 nM,11.3 nM,11.3 nM,68.4 nM
UGUUUUAAAAGUGAUACCAGACAAACAUGAGGAUCACCCAUGUAACAUGAGAGAUAAUAAGUCCCUUGGCAGCACAUAAUUAGUA [JR_Nu_SSTheophyB_Sub028],27 nM,33.1 nM,31.5 nM,–,–
GGGUGGUAGGCGGCCGCCACUGAUUUUCAUUCAUAGAUGACAUGAGGAUCACCCAUGUUUAUGUGCAGGACCGGGCCUGCUGUGG [aaaU],43.4 nM,102 nM,116 nM,144 nM,115 nM
AGCACUGUGACGGCCGCCACUACAUAAGUUGGGUGGUCAGGUUCAUUACAUGAGGAUCACCCAUGUAGGACCGGGUCUCAGUGCA [Omei Trp Exc B A v9],9.36 nM,15.7 nM,10.3 nM,11.2 nM,12.8 nM
GGACUAACCAGAAGGAGCGACGCGCAGAAACUGCAAUUUCCUCCACACGAGGAUCACCCGUGUCAGGUAGGUCGCUGGUUAGUCG,15 nM,18.7 nM,16.6 nM,17.4 nM,17.6 nM
AGCGACAUGCGUGAUACCAGCUACAUGAGGAUCACCCAUGUAAGUAGGAAACUACUGUGUAGCCCUUGGCAGCAUAGUGCAUGUC [Exclusion - Theophylline B (Freestyle 22)],13.4 nM,23.5 nM,15 nM,–,–
GCUGCAGCUACGGCCGCCACUGUUACGUGAGACAUGAGGAUCACCCAUGUUGAUGUUUUACAGAAUAGGACCGGGUAGUUGUAGU [E 1.1],8.84 nM,11.3 nM,–,–,9.87 nM
AUAUAUACAUGAGGAUCACCCAUGUUAUUUCGAGGACCGGUACGGCCGCCACUCGAUAGAGUAGAAGUAACAUUUGUUAGAUGAU [JR_SSTryptoA_Sub012],23.9 nM,25.2 nM,–,–,24.4 nM
